Numbering of substitutions follows the chain as printed. In names and notes the source's numbering stands.
Legend:
[1] = target: PD-1 (PDCD1) (Homo sapiens (Human)) (UniProt Q15116); assay: cell-based or functional assay
[2] = target: T1, CD112R, Q6DKI7; assay: flow cytometry, cells expressing CD112R, 20 nM; conditions: remark: other sources report otherwise
T1 chain: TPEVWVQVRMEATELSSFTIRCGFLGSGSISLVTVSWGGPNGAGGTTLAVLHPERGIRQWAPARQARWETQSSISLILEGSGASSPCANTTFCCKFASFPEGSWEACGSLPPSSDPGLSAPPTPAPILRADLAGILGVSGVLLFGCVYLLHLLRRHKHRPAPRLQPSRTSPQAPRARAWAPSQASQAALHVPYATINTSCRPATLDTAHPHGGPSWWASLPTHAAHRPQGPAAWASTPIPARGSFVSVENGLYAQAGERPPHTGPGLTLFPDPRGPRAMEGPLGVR

[3] = target: human PD-L1, full length, expressed on transfected HEK293 cells (human) (UniProt Q9NZQ7); assay: flow cytometry, HEK293 cells transfected with human PD-L1
[4] = target: T2, CD96 (UniProt P40200); assay: flow cytometry, MFI ratio to WT CD155 ECD-Fc, CD96-transfected cells
T2 sequence (looked up): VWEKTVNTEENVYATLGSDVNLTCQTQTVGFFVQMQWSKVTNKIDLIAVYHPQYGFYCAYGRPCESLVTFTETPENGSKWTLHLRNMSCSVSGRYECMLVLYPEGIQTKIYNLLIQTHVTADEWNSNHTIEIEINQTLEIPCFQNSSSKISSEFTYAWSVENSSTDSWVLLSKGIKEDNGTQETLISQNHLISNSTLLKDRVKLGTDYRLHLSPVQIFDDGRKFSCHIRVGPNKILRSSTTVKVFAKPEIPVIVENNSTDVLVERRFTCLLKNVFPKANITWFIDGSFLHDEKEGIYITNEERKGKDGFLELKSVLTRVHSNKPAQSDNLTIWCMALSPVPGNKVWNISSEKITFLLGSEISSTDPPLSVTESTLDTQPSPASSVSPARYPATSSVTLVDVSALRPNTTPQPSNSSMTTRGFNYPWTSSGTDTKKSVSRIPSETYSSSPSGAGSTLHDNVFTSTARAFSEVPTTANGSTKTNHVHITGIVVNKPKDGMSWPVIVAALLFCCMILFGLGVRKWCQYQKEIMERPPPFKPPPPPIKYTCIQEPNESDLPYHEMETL

[5] = target: T2, CD96; assay: flow cytometry, Fc fusion at 100 nM, CD96-transfected cells
[6] = target: T3, CD226 (Homo sapiens (Human)) (UniProt Q15762); assay: flow cytometry on CD226-expressing cells, Fc fusion at 100 nM
T3 sequence: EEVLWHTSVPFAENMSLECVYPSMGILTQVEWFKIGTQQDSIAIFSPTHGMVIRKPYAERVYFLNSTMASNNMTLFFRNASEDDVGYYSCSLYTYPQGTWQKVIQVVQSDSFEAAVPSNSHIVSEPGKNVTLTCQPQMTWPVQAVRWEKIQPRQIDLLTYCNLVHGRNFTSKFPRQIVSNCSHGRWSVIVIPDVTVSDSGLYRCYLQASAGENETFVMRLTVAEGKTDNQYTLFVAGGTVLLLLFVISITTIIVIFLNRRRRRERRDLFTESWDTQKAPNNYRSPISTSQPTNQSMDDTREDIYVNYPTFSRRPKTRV

Chain of PD-1 (PDCD1) (Homo sapiens (Human)) (Q15116 21-288): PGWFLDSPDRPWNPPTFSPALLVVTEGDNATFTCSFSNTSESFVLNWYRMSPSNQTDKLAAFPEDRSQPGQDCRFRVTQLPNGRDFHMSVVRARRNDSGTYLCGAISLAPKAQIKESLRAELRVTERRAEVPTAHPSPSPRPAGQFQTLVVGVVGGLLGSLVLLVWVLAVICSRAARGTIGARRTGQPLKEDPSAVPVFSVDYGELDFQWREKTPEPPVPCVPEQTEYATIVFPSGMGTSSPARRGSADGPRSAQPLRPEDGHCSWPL
Chain of human PD-L1, full length, expressed on transfected HEK293 cells (human) (Q9NZQ7 19-290): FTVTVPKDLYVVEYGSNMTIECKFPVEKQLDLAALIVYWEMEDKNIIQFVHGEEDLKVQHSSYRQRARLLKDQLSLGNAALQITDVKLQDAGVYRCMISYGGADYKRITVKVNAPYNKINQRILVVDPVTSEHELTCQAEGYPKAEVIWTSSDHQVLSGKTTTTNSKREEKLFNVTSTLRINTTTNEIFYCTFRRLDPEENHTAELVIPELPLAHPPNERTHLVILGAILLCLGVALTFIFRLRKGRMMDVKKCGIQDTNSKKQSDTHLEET

B1: PD-L2 I13V/H15Q/T47A/S67L/Q72H/R76G/Q82R/V89D IgV-Fc (Fc fusion, not shown: a dimerising Fc or GST)
chain: SEQLFTVTVPKELYIVEQGSNVTLECNFDTGSHVNLGAITASLQKVENDASPHRERATLLEEQLPLGKALFHIPHVQVGDEGQYRCIIIYGDAWDYKYLTLKVKA
For B1, the Fold increase over wildtype PD-L2 IgV-Fc (IFN gamma, MLR) [1] was 1.13 fold and the IFN gamma levels pg/mL (MLR) [1] was 1560 pg/mL.

B2: WT CD112-Fc ECD, Q92692 32-360 (Fc fusion, not shown: a dimerising Fc or GST)
chain: QDVRVQVLPEVRGQLGGTVELPCHLLPPVPGLYISLVTWQRPDAPANHQNVAAFHPKMGPSFPSPKPGSERLSFVSAKQSTGQDTEAELQDATLALHGLTVEDEGNYTCEFATFPKGSVRGMTWLRVIAKPKNQAEAQKVTFSQDPTTVALCISKEGRPPARISWLSSLDWEAKETQVSGTLAGTVTVTSRFTLVPSGRADGVTVTCKVEHESFEEPALIPVTLSVRYPPEVSISGYDDNWYLGRTDATLSCDVRSNPEPTGYDWSTTSGTFPTSAVAQGSQLVIHAVDSLFNTTFVCTVTNAVGMGRAEQVIFVRETPNTAGAGATGG
In the case of B2, the Fold Increase to WT IgV [2] is reported as 0.75 fold and the MFI at 20 nM [2] is reported as 1250.

B3: variant CD80 IgV-Fc A12T/E24D/E35D/D46V/I61V/L72P/E95V (Fc fusion, not shown: a dimerising Fc or GST)
chain: VIHVTKEVKEVTTLSCGHNVSVEDLAQTRIYWQKDKKMVLTMMSGVMNIWPEYKNRTIFDVTNNLSIVILAPRPSDEGTYECVVLKYEKDAFKRVHLAEVTLSVKAD
B3 was tested, and the MFI at 22.2 nM [3] was 1220 MFI.

B4: variant CD155 IgV-Fc G111R (Fc fusion, not shown: a dimerising Fc or GST)
chain: WPPPGTGDVVVQAPTQVPGFLGDSVTLPCYLQVPNMEVTHVSQLTWARHGESGSMAVFHQTQGPSYSESKRLEFVAARLGAELRNASLRMFGLRVEDEGNYTCLFVTFPQRSRSVDIWLRVL
For B4, the Fold ↑ to WT ECD [4] was 0.03 fold and the MFI at 100 nM [5] was 3320 MFI.

B5: CD155 P18S/T45S/T61K/S65W/S67A/F91S/G111R IgV-Fc (Fc fusion, not shown: a dimerising Fc or GST)
chain: B4 chain with P18S, T45S, T61K, S65W, S67A, F91S
In the case of B5, the MFI at 100 nM [6] is reported as 2110 MFI.

— US20210130436A1
